The series is described as follows: amyloid nucleation score (Sup35N fusion, yeast selection) (log enrichment); library NNK3; higher = more nucleation; inactive = no reads after selection. The method, boiled down:
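Three technical output replicates were used for random libraries. Psi-negative yeast expressing peptides of 20 random codons fused to Sup35N were induced with 100 μM copper sulfate for 24 hours and grown 7 days at 30°C on medium lacking adenine and uracil, and input and output plasmid inserts were Illumina-sequenced, excluding sequences with under 100 input reads. The nucleation score is the DiMSum log enrichment of output over input reads, centred on the mode score of non-aggregating sequences.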

This passage reports amyloid nucleation score results from the supplement of paper PMC12042874.

± gives the uncertainty stated by the source.

In turn, SCNFGANYNLKMIFIYVPWV registered an amyloid nucleation score of 1.75 ± 0.08.

Consider TTLVSNWQCSMGCCEVLWR, for which the amyloid nucleation score came to 3.32 ± 0.075.

Regarding LNSKIKLNYYLIF, the amyloid nucleation score was 0.108 ± 0.19.

On to VCVSVRDTCGLCLLVYDNTV, for which the amyloid nucleation score came out at 2.11 ± 0.079.

With ATKYDFYMVNKRNFWKSRGF, the amyloid nucleation score entry is “inactive”.

For DRGFGYGSITKGINA, the amyloid nucleation score result is “inactive”.

AMIFAICCLNNQESVGVRRT showed an amyloid nucleation score of 2.49 ± 0.071.

As to CSWVGAMFVQWNLPAPTEGI, the amyloid nucleation score was determined as 0.341 ± 0.37.

For IVSALQFAEAKL, the amyloid nucleation score entry is “inactive”.

Regarding SFKATV, the amyloid nucleation score entry was “inactive”.

As for LVFSRCWFSMTVEYISYSVD, the amyloid nucleation score entry was “inactive”.

In the case of GRIFRLPCYVRLVLVNCRYG, the amyloid nucleation score result is “inactive”.

For the substance NTTHNVNV, the amyloid nucleation score result is “inactive”.

On to TLHVCIVLSPGRW, for which the amyloid nucleation score entry was “inactive”.

As to CLLVRTIMRVLYFWMES, the amyloid nucleation score entry is “inactive”.

For VYNALNNSAVLQL, the amyloid nucleation score entry is “inactive”.

For SSLSTNARVDLSMRR, the amyloid nucleation score entry was “inactive”.

Consider FMEYFTCGV, for which the amyloid nucleation score entry was “inactive”.

Take VLYVRNLMLYGNLCKALLAF: the amyloid nucleation score entry was “inactive”.

Take SCSDW: the amyloid nucleation score entry is “inactive”.

Regarding GNFRSELITMVSCTMECRFL, the amyloid nucleation score entry was “inactive”.

For FYSLIMHLKRLSYVA, the amyloid nucleation score result is “inactive”.

On to VFYIVMMLVRAPIFFNGVPT, for which the amyloid nucleation score result was “inactive”.

SFRHKYYEHRPTIWDMDCDL: the amyloid nucleation score result is “inactive”.

With SAKIL, the amyloid nucleation score amounted to 0.118 ± 0.23.

As for RYGSNTSLVANCAGPRPGLV, the amyloid nucleation score result is “inactive”.

Regarding QSSIHTFCLTLLLSKTYSYQ, the amyloid nucleation score entry is “inactive”.

As for GDYGCFSLMQTHTEEEILMR, the amyloid nucleation score result was “inactive”.

With NSIILFWRLSRGVYSFLPHK, the amyloid nucleation score result was “inactive”.

Consider VEFSAIFFCTLLD, for which the amyloid nucleation score entry was “inactive”.

As for FVVGIFYSIQYIECSRVSSY, the amyloid nucleation score was -0.106 ± 0.55.

For the substance DNLTVTFRCLHAYLGGLDFD, the amyloid nucleation score result was “inactive”.

As for YIFVALYPSHT, the amyloid nucleation score worked out at 0.443 ± 0.28.

VVISYQTSMTNHGCLSFYQW yielded an amyloid nucleation score of 2.13 ± 0.056.

Consider FYGLYFYHSVH, for which the amyloid nucleation score entry was “inactive”.

As for SISTQCWSPYVAFHSWKTH, the amyloid nucleation score came out at 0.416 ± 0.79.

Consider ISINYVPDMFDLRDYFTVIL, for which the amyloid nucleation score entry is “inactive”.

Take YSFECMSH: the amyloid nucleation score result is “inactive”.

Consider VMCSWLTGCYIQKNRFQGSL, for which the amyloid nucleation score worked out at 0.724 ± 0.27.

NIRWGTYVSKFVLYLAITTR: the amyloid nucleation score entry was “inactive”.

For the substance GNIFRRYTVPSDANTKTWIY, the amyloid nucleation score entry was “inactive”.

For the substance IFVILW, the amyloid nucleation score was determined as 0.101 ± 0.6.

Consider SVIRWFVTLWLGEHLRASDT, for which the amyloid nucleation score entry is “inactive”.

Regarding RMKGFEFCCWDQ, the amyloid nucleation score was -0.31 ± 0.55.

Turning to EISSVAAYGSN, the amyloid nucleation score entry was “inactive”.

As to TCLLMSPVFMVYFLLKTMNS, the amyloid nucleation score entry was “inactive”.

Substance YRCDVFFLSVVVDSNFIDKL gave an amyloid nucleation score of 2.83 ± 0.079.

For the substance LFHSAMNGSHFSTVHSNSVI, the amyloid nucleation score result was “inactive”.

With MNYRFVISMLWVEVRGFGRQ, the amyloid nucleation score is -0.892 ± 2.4.

With FITGCSYVAYFMIAA, the amyloid nucleation score entry was “inactive”.

On to VSRKMRLVWTRLVER, for which the amyloid nucleation score result is “inactive”.

SLNILWRSVCFTGCERGYLG displayed an amyloid nucleation score of 0.763 ± 0.2.

The substance TFSGVCIVIAYCGVFNILEG showed an amyloid nucleation score of 1.94 ± 0.097.

VFFLNIAIIRVECSYPLVRK displayed an amyloid nucleation score of -0.223 ± 0.75.

On to LYESNVRCNRVVTSLFVSSQ, for which the amyloid nucleation score result is “inactive”.

Regarding VVMTDHINIKGIVEPTVTTF, the amyloid nucleation score result is “inactive”.

Substance LSLSSFCF had an amyloid nucleation score of 1.3 ± 0.17.

HEVCS: the amyloid nucleation score result was “inactive”.

As to PSGHV, the amyloid nucleation score result is “inactive”.

With SSNFVFNLPSTWWSYYMTWV, the amyloid nucleation score was -0.216 ± 0.75.

On to SCSMHFLVCEDYNRMLALRC, for which the amyloid nucleation score entry is “inactive”.

In the case of RTWDLDVGVLRLWVLSIG, the amyloid nucleation score entry was “inactive”.

FFASRENPSFHFVSFWTYTW: the amyloid nucleation score entry is “inactive”.

In the case of QSSLVDGWKNLTKVRCGDYS, the amyloid nucleation score result was “inactive”.

Regarding TSVTSTSLSGSLSAV, the amyloid nucleation score result is “inactive”.

The substance ARIPEMLWFWVGTRKRGFII showed an amyloid nucleation score of 1.74 ± 0.11.

In the case of SWLKVCRQGYGDSSIRYRLL, the amyloid nucleation score entry is “inactive”.

Consider LGLMLDILRKQDC, for which the amyloid nucleation score entry is “inactive”.

With VQCRDVLGNDVFCVYHLGVE, the amyloid nucleation score entry was “inactive”.

Consider YFLSN, for which the amyloid nucleation score result is “inactive”.

For IIYFRVISIGYSWGIVRDRF, the amyloid nucleation score result was “inactive”.

Turning to NMVTYTMIWLWMSMAAPS, the amyloid nucleation score result was “inactive”.

Consider VPPFPRMEAGGYVHVVAFSV, for which the amyloid nucleation score result is “inactive”.

Consider YVLSATG, for which the amyloid nucleation score entry was “inactive”.

Regarding RRARKWLVIDVRVPSLWSMR, the amyloid nucleation score result was “inactive”.

Turning to MLITSMLCIHV, the amyloid nucleation score result is “inactive”.

Turning to HNSCGGY, the amyloid nucleation score result was “inactive”.

On to DWRQVYAYENSLWTVFSVWD, for which the amyloid nucleation score entry is “inactive”.

With GILRIWNDLSLRFDKIWWG, the amyloid nucleation score result was “inactive”.

On to VLYGRSGVVEANRC, for which the amyloid nucleation score entry was “inactive”.

Consider KGLYV, for which the amyloid nucleation score result was “inactive”.

Turning to CSIPFVWEIHHM, the amyloid nucleation score entry was “inactive”.

Take PCRKMIQKIVQM: the amyloid nucleation score entry was “inactive”.

Regarding LQFGVRINSLFYRMVSAVVG, the amyloid nucleation score result was “inactive”.

With HSVGWHFPLCFSTQMTLVRS, the amyloid nucleation score result was “inactive”.

As to VLLGAVYKQNLANQYYSNLY, the amyloid nucleation score entry was “inactive”.

As for GTDWLDMVILGEPFYMYLST, the amyloid nucleation score entry was “inactive”.

In the case of CFYVSLCGV, the amyloid nucleation score was determined as 0.259 ± 0.49.

For the substance YHWSGRLL, the amyloid nucleation score entry is “inactive”.

On to DPTSLGRQRLTRDKIPQNWS, for which the amyloid nucleation score entry is “inactive”.

NLVACIVNTCYL came in with an amyloid nucleation score of 1.52 ± 0.14.

For KYKAWMVCHTHWSTVKVKRL, the amyloid nucleation score result is “inactive”.

For the substance LYSLVV, the amyloid nucleation score result is “inactive”.

On to GNGNFIRY, for which the amyloid nucleation score result was “inactive”.

For QSRMLELS, the amyloid nucleation score result was “inactive”.

Regarding RPFKFMKLFHIMCVVDVYCM, the amyloid nucleation score result is “inactive”.

Turning to NNFNISLRVRRSFKKCFFVR, the amyloid nucleation score came out at 1.85 ± 0.077.

SVGRSST: the amyloid nucleation score result was “inactive”.

For FSALMIY, the amyloid nucleation score was found to be 0.015 ± 0.32.

Take LGFMKSFLGYSY: the amyloid nucleation score result was “inactive”.

With LSNMMVVPSTSERFFFRAMG, the amyloid nucleation score result was “inactive”.

Take GSRCSASPKNSESGRGKYFG: the amyloid nucleation score result was “inactive”.

In the case of VYMYVALPRSEDHNVF, the amyloid nucleation score result was “inactive”.

With QVTDEGD, the amyloid nucleation score result is “inactive”.

FCKMVFLGTAVRCVVKLQSV: the amyloid nucleation score result was “inactive”.

SSSVKEMQQPVTTTLETQST: the amyloid nucleation score entry is “inactive”.

Consider GTVGHYRLST, for which the amyloid nucleation score result is “inactive”.

For the substance NVNILFDNLIRDWFVSMWED, the amyloid nucleation score result is “inactive”.

The substance LLLCS displayed an amyloid nucleation score of 0.402 ± 0.18.

For the substance CVNKFLSVPSIDSEDFCYLV, the amyloid nucleation score entry is “inactive”.

With TSRDQPRNVYVVVAVI, the amyloid nucleation score entry is “inactive”.

In the case of RQHFRYHGIFAEFGSTFVRS, the amyloid nucleation score result was “inactive”.

For LADNIRFISN, the amyloid nucleation score result was “inactive”.

For MLRLKYLIELTRDFFGWFLF, the amyloid nucleation score result was “inactive”.

For HQISVVCGTNMRNGCFRSLC, the amyloid nucleation score entry is “inactive”.

With VSVLIHGKRSFGMWCSMHAY, the amyloid nucleation score result is “inactive”.

With DVNGR, the amyloid nucleation score entry is “inactive”.

Turning to WMVGVKRSW, the amyloid nucleation score result was “inactive”.

PFFCYWVTMKKVIFDTGVFA: the amyloid nucleation score entry was “inactive”.

Turning to RTPLYAVLWVEGGLLPYLL, the amyloid nucleation score result is “inactive”.

With LDTVTCNSLETAFGSFKNWL, the amyloid nucleation score result is “inactive”.

Consider RDFITRSSECSESD, for which the amyloid nucleation score entry is “inactive”.

MFMRIRSLIE: the amyloid nucleation score result is “inactive”.

In the case of RWPKIASCFSTHPWSGRYMW, the amyloid nucleation score result was “inactive”.

With RMGWSTGILCRVDTLFITML, the amyloid nucleation score entry is “inactive”.

As to CADVTTTHGGLYVGPSSTAT, the amyloid nucleation score entry was “inactive”.

In turn, CVWILSQLG registered an amyloid nucleation score of -0.797 ± 1.9.

HTMAHWITKEAAFLI: the amyloid nucleation score entry is “inactive”.

WVGLCFLRFQVHSTSDESVS: the amyloid nucleation score result was “inactive”.

Turning to FLRRLSRKTKDMDSSRGMCC, the amyloid nucleation score result is “inactive”.

SNSVFIWYWPEWVEDWSSWL registered an amyloid nucleation score of 0.607 ± 0.16.

Consider RCWNKVFLSYQTELI, for which the amyloid nucleation score result is “inactive”.

As to QYTFVGDLMVDLITKTVMLM, the amyloid nucleation score entry was “inactive”.
